This note sets out measurements from the RNAGym collection of RNA variant scans (doi:10.7554/elife.80360).

The chains are these.
B1: Hairpin Ribozyme (parent)
chain: GUCCUCUUUCACGUGCGCGUGAAAGAGAGAAGUGAACCAGAGAAACACACGUUGUGGUAUAUUACCUGGUA

Variants of B1 are the subject of the data set. As to the kind of experiment: self-cleavage, relative activity (ratio to wild type); higher = more cleavage; co-transcriptional.
As for GUCCUCCUUCACGUGCGCGUGAAAGAGAGAAGUGAACCAAAGAAACACACGUUGUGGUAUAUUACCUGGUA [U7C G40A], the self-cleavage is 0.334. As for GUCCUCCUUCACGUGCACGUGAAAGAGAGAAGUGAACCAGAGAAACACACGUUGUGGUAUAUUACCUGGUA [U7C G17A], the self-cleavage stood at 0.863. Regarding GUCCUCCUUCACGUGCGCGUGAAAGAGAGAAGUGAAACAGAGAAACACACGUUGUGGUAUAUUACCUGGUA [U7C C37A], the self-cleavage is 0.37. On to GUCCUCCUUCACGUGCGCGUGAAAGAGAGAAGUGAAGCAGAGAAACACACGUUGUGGUAUAUUACCUGGUA [U7C C37G], for which the self-cleavage was determined as 0.273. In the case of GUCCUCCUUCACGUGCGCGUGAAAGAGAGAAGUGAACCAGAGAAGCACACGUUGUGGUAUAUUACCUGGUA [U7C A45G], the self-cleavage worked out at 0.104.

For the variant GUCCUCCUUCACGUGCGCGUGAAAGAGAGAAGUGAACCAGAGAACCACACGUUGUGGUAUAUUACCUGGUA [U7C A45C], the self-cleavage is 0.136.

For GUCCUCCUUCACGUGCGCGUGAAAGAGAGAAGUGAACCAGAGAAACACACGUUGUGGUAUAUGACCUGGUA [U7C U63G], the self-cleavage came to 0.161. The value for GUCCUCCUUCACGUGCGCGUGAAAGAGAGAAGUGAACCAGAGAAACACACGUUGUGGUAUAUAACCUGGUA [U7C U63A] was 0.19. As to GUCCUCCUUCACGUGCGCGUGAAAGAGAGAAGUGAACCAGAGAAACACCCGUUGUGGUAUAUUACCUGGUA [U7C A49C], the self-cleavage was 0.0316. The value for GUCCUCCUUCACGUGCGCGUGAAAGAGAGAAGUGAACCAGAAAAACACACGUUGUGGUAUAUUACCUGGUA [U7C G42A] was 0.287. As to GUCCUCCUUCACGUGCGCGUGAAAGAGAGAAGUGAACCAGAUAAACACACGUUGUGGUAUAUUACCUGGUA [U7C G42U], the self-cleavage came to 0.205. To GUCCUCCUUCACGUGCGCGUGAAAGAGAGAAGUGAACCAGACAAACACACGUUGUGGUAUAUUACCUGGUA [U7C G42C] belongs 0.245; to GUCCUCGUUCAGGUGCGCGUGAAAGAGAGAAGUGAACCAGAGAAACACACGUUGUGGUAUAUUACCUGGUA [U7G C12G], 0.658; to GUCCUCGUUCACGUGCGCGUGAAAGAGAGAAGUGAACCAGAGAAACUCACGUUGUGGUAUAUUACCUGGUA [U7G A47U], 0.0788. To GUCCUCGUUCACGUGCGCGUGAAAGAGAGAAGUGAACCAGAGAAACCCACGUUGUGGUAUAUUACCUGGUA [U7G A47C] belongs 0.234; to GUCCUCCUUCACGUGCGCGUGAAAGAGAGAAGUGAACCAGAGAAACACACGUUGUGGUAUAUUACCUGAUA [U7C G69A], 0.289.

Take GUCCUCCUUCACGUGCGCGUGAAAGAGAGAAGUGAACCAGAGAAACAUACGUUGUGGUAUAUUACCUGGUA [U7C C48U]: the self-cleavage was found to be 0.279. As for GUCCUCGUUCACGUGCGCGUGAAAGAGAGAAGUGAACCAGAGAAACACACGUUGUGGUAUUUUACCUGGUA [U7G A61U], the self-cleavage came out at 0.203. To GUCCUCCUUCACGUGCGCGUGAAAGAGAGAAGUGAACCAGAGAAACACACGUUGUGGUAUAUUGCCUGGUA [U7C A64G] belongs 0.458; to GUCCUCCUUCACGUGCGCGUGAAAGAGAGAAGUGAACCAGAGAAACACACGUUGUGGUAUAUUCCCUGGUA [U7C A64C], 0.26.

Regarding GUCCUCCUUCACGUACGCGUGAAAGAGAGAAGUGAACCAGAGAAACACACGUUGUGGUAUAUUACCUGGUA [U7C G15A], the self-cleavage is 0.753. The value for GUCCUCGUUCACGUGCGCGUGAAAGAGAGAAGUGAACCAGAGAUACACACGUUGUGGUAUAUUACCUGGUA [U7G A44U] was 0.139. To GUCCUCCUUCACGUGCGCGUGAAAGAGAGAAGUGAACCAGAGAAACACACGUUGUGGUAUAGUACCUGGUA [U7C U62G] belongs 0.179.

In the case of GUCCUCCUUUACGUGCGCGUGAAAGAGAGAAGUGAACCAGAGAAACACACGUUGUGGUAUAUUACCUGGUA [U7C C10U], the self-cleavage is 0.9. The value for GUCCUCCUUAACGUGCGCGUGAAAGAGAGAAGUGAACCAGAGAAACACACGUUGUGGUAUAUUACCUGGUA [U7C C10A] was 0.815. Regarding GUCCUCCUUCACGUGCGCGUGAAAGAGAGAAGUGAACCAGAGAAACACACAUUGUGGUAUAUUACCUGGUA [U7C G51A], the self-cleavage is 0.69. The value for GUCCUCGUUCACGUGCGCGUGAAAGAGAGAAGUGAACCAGAGAAACACACGUUGUGGUAUAUUGCCUGGUA [U7G A64G] was 0.461. With GUCCUCCUUCACGUGCGCGUGAAAGAGAGAAGUGAACCAGAGAAACACACGUUGUGGUAUCUUACCUGGUA [U7C A61C], the self-cleavage worked out at 0.11. To GUCCUCGUUCACGUGCGCGUGAAAGUGAGAAGUGAACCAGAGAAACACACGUUGUGGUAUAUUACCUGGUA [U7G A26U] belongs 0.384. GUCCUCCUUCACGUGCGCGUGAAAGAGAGAAGUGAACCAGAGAUACACACGUUGUGGUAUAUUACCUGGUA [U7C A44U]: the self-cleavage amounted to 0.106.

As to GUCCUCCUUCACGUGCGCGUGAAAGAGAGAAGUGAACCAGAGAAACACACGUUGUGGUAAAUUACCUGGUA [U7C U60A], the self-cleavage was found to be 0.737. To GUCCUCCUUCACGUGCGCGUGAAAGAGAGAAGUGAACCAGAGAAACACACGUUGUGGUAGAUUACCUGGUA [U7C U60G] belongs 0.621; to GUCCUCCUUCACGGGCGCGUGAAAGAGAGAAGUGAACCAGAGAAACACACGUUGUGGUAUAUUACCUGGUA [U7C U14G], 0.723.

Take GUCCUCCUUCACGCGCGCGUGAAAGAGAGAAGUGAACCAGAGAAACACACGUUGUGGUAUAUUACCUGGUA [U7C U14C]: the self-cleavage stood at 0.925. Regarding GUCCUCCUUCACGUGCGCGUGAAAGAGAGAAGUGAACCAGAGAAACACACGUUGUGGUAUAUUACCGGGUA [U7C U67G], the self-cleavage worked out at 0.171. On to GUCCUCGUUCACGUGCGCGUGAAGGAGAGAAGUGAACCAGAGAAACACACGUUGUGGUAUAUUACCUGGUA [U7G A24G], for which the self-cleavage was 0.697. With GUCCUCCUUCACGUGCGCGUGAAAGAGAGAAGAGAACCAGAGAAACACACGUUGUGGUAUAUUACCUGGUA [U7C U33A], the self-cleavage was 0.068. For the variant GUCCUCCUUCACGUGCGCGUGAAAGAGAGAAGUGAACCAGAGAAACACACGUUGUGGUAUAUUACCUGGUG [U7C A71G], the self-cleavage was found to be 1.13.
